Results from article PMC9431562, “A Cytoplasmic NAD(P)H-Dependent Polysulfide Reductase with Thiosulfate Reductase Activity from the Hyperthermophilic Bacterium Thermotoga maritima” (Microbiology Spectrum, 2022).

Assays:
NSR = target: T1, NSR (Thermotoga maritima, UniProt Q9WYL1); experiment: thin-layer chromatography of cofactor; type: binding; details: as-purified recombinant enzyme
T1 construct: gene TM_0379; full-length ORF amplified from genomic DNA, pET-24b(+) BamHI/XhoI, His-tagged, E. coli BL21; about 50 kDa by SDS-PAGE; FAD flavoprotein; purified anaerobically
T1 sequence (Q9WYL1 1-443): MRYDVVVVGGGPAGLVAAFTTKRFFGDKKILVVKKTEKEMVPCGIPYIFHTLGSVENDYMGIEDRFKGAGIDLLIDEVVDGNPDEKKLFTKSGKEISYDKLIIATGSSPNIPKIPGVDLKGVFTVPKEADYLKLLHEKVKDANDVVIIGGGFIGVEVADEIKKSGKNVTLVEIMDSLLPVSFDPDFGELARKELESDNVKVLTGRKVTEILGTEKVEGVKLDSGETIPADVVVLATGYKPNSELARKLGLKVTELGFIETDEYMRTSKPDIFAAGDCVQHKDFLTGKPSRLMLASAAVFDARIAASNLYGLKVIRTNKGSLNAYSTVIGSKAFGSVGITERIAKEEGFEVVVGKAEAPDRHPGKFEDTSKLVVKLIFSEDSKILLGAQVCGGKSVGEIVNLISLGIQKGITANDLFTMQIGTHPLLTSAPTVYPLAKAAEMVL

purified protein [1] = substrate: O=S(O)(O)=S; experiment: purified protein; type: biochemical, Thermotoga maritima; details: co-substrate NADH, 50 mM phosphate pH 7.0, 45 °C, anaerobic, table cell does not tell whether CoA was present
purified protein [2] = substrate: NC(=O)C1=CN([C@@H]2O[C@H](COP(=O)(O)OP(=O)(O)OC[C@H]3O[C@@H](n4cnc5c(N)ncnc54)[C@H](O)[C@@H]3O)[C@@H](O)[C@H]2O)C=CC1; experiment: purified protein; type: biochemical, Thermotoga maritima; details: co-substrate S^0, 50 mM phosphate pH 7.0, 45 °C, anaerobic, table cell does not tell whether CoA was present
purified protein [3] = substrate: NC(=O)C1=CN([C@@H]2O[C@H](COP(=O)(O)OP(=O)(O)OC[C@H]3O[C@@H](n4cnc5c(N)ncnc54)[C@H](OP(=O)(O)O)[C@@H]3O)[C@@H](O)[C@H]2O)C=CC1; experiment: purified protein; type: biochemical, Thermotoga maritima; details: co-substrate S^0, 50 mM phosphate pH 7.0, 45 °C, anaerobic, table cell does not tell whether CoA was present

For `Cc1cc2nc3c(=O)[nH]c(=O)nc-3n(C[C@H](O)[C@H](O)[C@H](O)COP(=O)(O)OP(=O)(O)OC[C@H]3O[C@@H](n4cnc5c(N)ncnc54)[C@H](O)[C@@H]3O)c2cc1C` [FAD], the “thin-layer chromatography of cofactor” value (NSR) was “Thin-layer chromatography analysis showed that it binds FAD as its cofactor”.

B1: NSR (Thermotoga maritima MSB8) (protein)
chain: MRYDVVVVGGGPAGLVAAFTTKRFFGDKKILVVKKTEKEMVPCGIPYIFHTLGSVENDYMGIEDRFKGAGIDLLIDEVVDGNPDEKKLFTKSGKEISYDKLIIATGSSPNIPKIPGVDLKGVFTVPKEADYLKLLHEKVKDANDVVIIGGGFIGVEVADEIKKSGKNVTLVEIMDSLLPVSFDPDFGELARKELESDNVKVLTGRKVTEILGTEKVEGVKLDSGETIPADVVVLATGYKPNSELARKLGLKVTELGFIETDEYMRTSKPDIFAAGDCVQHKDFLTGKPSRLMLASAAVFDARIAASNLYGLKVIRTNKGSLNAYSTVIGSKAFGSVGITERIAKEEGFEVVVGKAEAPDRHPGKFEDTSKLVVKLIFSEDSKILLGAQVCGGKSVGEIVNLISLGIQKGITANDLFTMQIGTHPLLTSAPTVYPLAKAAEMVL
notes: full-length ORF amplified from genomic DNA, pET-24b(+) BamHI/XhoI, His-tagged, E. coli BL21; about 50 kDa by SDS-PAGE; FAD flavoprotein; purified anaerobically
B1 showed a Km (purified protein [1]) of 10 ± 1.2 µM, a Km (purified protein [2]) of 50 ± 6.3 µM and a Km (purified protein [3]) of 80 ± 21.2 µM.
